Measured values published in patent publication US20240383984A1 (Genentech, published 2024).
Positions count from the first letter of the chain named.

T1: human FcRH3 (BIACORE analyte) (human, UniProt Q96P31 18-573, limits assumed)
T1 construct: also called huFcRH3
T1 sequence (looked up): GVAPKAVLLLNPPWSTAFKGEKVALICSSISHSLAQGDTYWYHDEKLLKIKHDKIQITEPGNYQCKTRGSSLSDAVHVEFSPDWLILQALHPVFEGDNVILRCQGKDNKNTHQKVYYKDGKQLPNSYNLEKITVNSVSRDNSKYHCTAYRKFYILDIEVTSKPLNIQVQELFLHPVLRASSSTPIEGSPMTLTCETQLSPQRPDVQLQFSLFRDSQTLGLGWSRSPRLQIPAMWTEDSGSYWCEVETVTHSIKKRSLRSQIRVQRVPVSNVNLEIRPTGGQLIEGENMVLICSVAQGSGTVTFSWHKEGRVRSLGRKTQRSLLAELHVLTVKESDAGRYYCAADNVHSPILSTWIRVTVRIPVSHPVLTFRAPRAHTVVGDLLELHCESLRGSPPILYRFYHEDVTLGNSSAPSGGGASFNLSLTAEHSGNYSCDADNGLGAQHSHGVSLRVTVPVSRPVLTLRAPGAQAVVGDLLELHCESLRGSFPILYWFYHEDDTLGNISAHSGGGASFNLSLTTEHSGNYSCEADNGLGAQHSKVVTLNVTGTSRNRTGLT

T2: human FcRH5 protein fragment (soluble) (human, UniProt Q96RD9 16-851)
T2 construct: whole entry named; also called soluble human FcRH5; Human FcRH5 (BIACORE analyte)
T2 sequence: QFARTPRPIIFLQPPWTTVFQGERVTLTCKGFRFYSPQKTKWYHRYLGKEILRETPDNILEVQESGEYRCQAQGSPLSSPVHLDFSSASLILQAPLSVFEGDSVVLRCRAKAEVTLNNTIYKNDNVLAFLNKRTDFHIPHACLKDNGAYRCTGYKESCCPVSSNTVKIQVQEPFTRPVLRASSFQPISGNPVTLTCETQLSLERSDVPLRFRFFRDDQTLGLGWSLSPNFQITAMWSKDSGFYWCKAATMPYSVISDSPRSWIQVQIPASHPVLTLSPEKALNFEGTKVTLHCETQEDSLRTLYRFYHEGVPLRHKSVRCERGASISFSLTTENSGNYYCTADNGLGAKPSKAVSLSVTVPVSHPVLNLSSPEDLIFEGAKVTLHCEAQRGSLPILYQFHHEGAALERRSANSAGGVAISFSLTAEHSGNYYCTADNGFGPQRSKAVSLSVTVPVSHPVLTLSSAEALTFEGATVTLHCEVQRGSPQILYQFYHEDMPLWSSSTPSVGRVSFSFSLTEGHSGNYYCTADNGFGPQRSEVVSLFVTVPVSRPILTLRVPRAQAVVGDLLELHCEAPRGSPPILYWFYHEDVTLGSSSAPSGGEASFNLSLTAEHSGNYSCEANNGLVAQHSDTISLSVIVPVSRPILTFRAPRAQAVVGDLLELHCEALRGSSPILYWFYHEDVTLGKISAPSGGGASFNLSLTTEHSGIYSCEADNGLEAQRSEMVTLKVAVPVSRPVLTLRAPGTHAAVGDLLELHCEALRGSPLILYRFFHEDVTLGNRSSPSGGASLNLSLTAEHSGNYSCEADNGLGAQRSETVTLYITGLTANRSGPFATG

T3: cynomolgus FcRH5 protein fragment (soluble) (cynomolgus monkey)
T3 construct: whole entry named; also called Cyno FcRH5 (BIACORE analyte)
T3 chain: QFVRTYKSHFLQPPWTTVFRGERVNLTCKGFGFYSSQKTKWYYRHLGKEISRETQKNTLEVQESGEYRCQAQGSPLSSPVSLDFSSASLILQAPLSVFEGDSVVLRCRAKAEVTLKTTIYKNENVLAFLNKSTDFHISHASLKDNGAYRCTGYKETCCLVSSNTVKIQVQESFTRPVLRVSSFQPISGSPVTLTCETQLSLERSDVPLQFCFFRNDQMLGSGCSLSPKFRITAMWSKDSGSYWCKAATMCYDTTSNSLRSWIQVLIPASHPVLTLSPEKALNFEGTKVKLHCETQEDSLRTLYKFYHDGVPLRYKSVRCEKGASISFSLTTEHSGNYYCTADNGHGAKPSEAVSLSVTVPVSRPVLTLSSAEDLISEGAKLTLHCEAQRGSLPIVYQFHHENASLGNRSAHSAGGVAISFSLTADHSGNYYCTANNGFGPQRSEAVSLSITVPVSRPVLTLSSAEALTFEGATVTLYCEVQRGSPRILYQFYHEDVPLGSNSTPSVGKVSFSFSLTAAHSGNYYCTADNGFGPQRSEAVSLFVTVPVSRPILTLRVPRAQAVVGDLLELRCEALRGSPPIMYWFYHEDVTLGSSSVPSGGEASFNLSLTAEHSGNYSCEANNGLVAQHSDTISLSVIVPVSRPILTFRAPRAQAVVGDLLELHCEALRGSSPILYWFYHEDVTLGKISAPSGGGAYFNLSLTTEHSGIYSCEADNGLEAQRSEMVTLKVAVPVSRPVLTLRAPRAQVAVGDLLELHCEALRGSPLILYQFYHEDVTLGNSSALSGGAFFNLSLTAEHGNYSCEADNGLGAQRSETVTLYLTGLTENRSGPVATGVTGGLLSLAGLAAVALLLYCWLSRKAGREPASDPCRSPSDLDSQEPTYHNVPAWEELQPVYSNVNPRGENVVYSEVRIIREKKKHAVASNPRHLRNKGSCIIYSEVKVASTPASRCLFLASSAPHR

B1: hu1G7.v1.4/38E4.v1 TDB (bispecific antibody, V domains shown)
VH 1: EVQLVESGPGLVKPSETLSLTCTVSGFSLTRFGVHWVRQPPGKGLEWLGVIWRGGSTDYNAAFMSRLTISKDNSKNQVSLKLSSVTAADTAVYYCSNHYYGSSDYALDNWGQGTLVTVSS
VL 1: DIQMTQSPSSLSASVGDRVTITCKASQDVRNLVVWFQQKPGKAPKLLIYSGSYRYSGVPSRFSGSGSGTDFTLTISSLQPEDFATYYCQQHYSPPYTFGQGTKVEIK
VH 2: EVQLVQSGAEVKKPGASVKVSCKASGFTFTSYYIHWVRQAPGQGLEWIGWIYPENDNTKYNEKFKDRVTITADTSTSTAYLELSSLRSEDTAVYYCARDGYSRYYFDYWGQGTLVTVSS
VL 2: DIVMTQSPDSLAVSLGERATINCKSSQSLLNSRTRKNYLAWYQQKPGQSPKLLIYWTSTRKSGVPDRFSGSGSGTDFTLTISSLQAEDVAVYYCKQSFILRTFGQGTKVEIK
notes: knob-into-hole TDB; also called 1G7.v1.4 TDB; 1G7.v1.4 (TDB format)
B2: 1G7.v85/38E4.v1 TDB (bispecific antibody, V domains shown)
VH 1: B1 VH 1 with M64V
VL 1: B1 VL 1
VH 2: B1 VH 2
VL 2: B1 VL 2
notes: knob-into-hole TDB; also called 1G7.v85 TDB; 1G7.v85 (TDB format)

Experiments:
[1] = target: T1, human FcRH3 (BIACORE analyte); assay: SPR (BIACORE), TDB captured as ligand, FcRH3 as analyte, 25 °C, 1:1 binding model
[2] = target: T2, human FcRH5 protein fragment (soluble); assay: SPR (BIACORE), Human FcRH5, 1:1 binding model
[3] = target: T2, human FcRH5 protein fragment (soluble); assay: SPR (BIACORE), TDB captured as ligand, Hu FcRH5 as analyte, 25 °C, 1:1 binding model
[4] = target: T3, cynomolgus FcRH5 protein fragment …; assay: SPR (BIACORE), hIgG capture format, 1:1 binding model, monovalent affinity; same numbers as FIG. 10B, Cyno FcRH5 panel
Protocol: Kinetic characterization experiments were carried out (see Table 8). In these experiments, binding of soluble FcRH5 protein fragment to purified antibodies in human TDB antibody format was analyzed at six different non-zero concentrations (a 1:3 dilution series, one concentration injected twice as a replicate). Flow rate was set at 40 μl/min and association and dissociation monitored for 600 s.

Row | Binder | koff [1] [s⁻¹] | kon [1] [M⁻¹ s⁻¹] | Kd [2] [nM] | koff [2] [s⁻¹] | kon [2] [M⁻¹ s⁻¹] | Kd [3] [nM] | koff [3] [s⁻¹] | kon [3] [M⁻¹ s⁻¹] | Kd [4] [nM] | koff [4] [s⁻¹] | kon [4] [M⁻¹ s⁻¹]
1 | B1 | 0.00833 | 109000 | – | – | – | – | – | – | – | – | –
2 | B2 | – | – | 2.08 | 0.000746 | 359000 | 2.35 | 0.00104 | 441000 | 6.76 | 0.000847 | 125000
